Experimental data taken from paper doi:10.1101/589515 (bioRxiv, 2019).

Molecular target: the molecule itself
Assay: cryo-EM structure

B1: human polycystin-2 (PC2), truncated construct Pro185 - Asp723 (domain or fragment, UniProt Q13563 185-723, looked up)
chain: PRVAWAERLVRGLRGLWGTRLMEESSTNREKYLKSVLRELVTYLLFLIVLCILTYGMMSSNVYYYTRMMSQLFLDTPVSKTEKTNFKTLSSMEDFWKFTEGSLLDGLYWKMQPSNQTEADNRSFIFYENLLLGVPRIRQLRVRNGSCSIPQDLRDEIKECYDVYSVSSEDRAPFGPRNGTAWIYTSEKDLNGSSHWGIIATYSGAGYYLDLSRTREETAAQVASLKKNVWLDRGTRATFIDFSVYNANINLFCVVRLLVEFPATGGVIPSWQFQPLKLIRYVTTFDFFLAACEIIFCFFIFYYVVEEILEIRIHKLHYFRSFWNCLDVVIVVLSVVAIGINIYRTSNVEVLLQFLEDQNTFPNFEHLAYWQIQFNNIAAVTVFFVWIKLFKFINFNRTMSQLSTTMSRCAKDLFGFAIMFFIIFLAYAQLAYLVFGTQVDDFSTFQECIFTQFRIILGDINFAEIEEANRVLGPIYFTTFVFFMFFILLNMFLAIINDTYSEVKSDLAQQKAEMELSDLIRKGYHKALVKLKLKKNTVD
stoichiometry N: 4
